Where a chain is given by its changes, count along the chain named. Names and notes keep the numbering of the source.
B1: LMJ1.2C nanobody, biotin-tagged (VHH)
VHH: QVQLVETGGGLVQAGGSLRLSCAASGSTFSHSAGGWYRQAPEKQRELVAGIRSDGNINYADSVKDRFTISRDNASNTMYLQMNNLKPEDTAVYVCNIRGSYGNTYYSRWGQGTQVTVSS
notes: The text says the nanobodies for BLI were purified with C-terminal polyhistidine tags; source: E. coli WK6, periplasm, purified (Ni-NTA), then sortase-tagged with biotin; not shown: LPETG sortase motif, C-terminal, kept; His6, C-terminal, cleaved
B2: LMJ2.5I nanobody, biotin-tagged (VHH)
VHH: B1 VHH with Q1R, A24V, T113A
notes: as for B1
B3: NJB2-IL2 (NJB2 nanobody fused to murine IL-2) (VHH)
VHH: B1 VHH with S32N, R52S
notes: glycine–serine (G5S) linker; murine interleukin-2; about 32 kDa; source: HEK293 cells, transfected, purified (TALON; some by SEC)
B4: NJT6-IL2 (NJT6 nanobody fused to murine IL-2) (VHH)
VHH: QVQLVETGGDLVQPGGSLRLSCAASGLTLDYYAIGWVRQAPGKEREGVSCITPQDGNTYYDDSVMGRFTILRDNAKNMVYLQMNNLKPEDTAVYFCAAAGALTLDPSEYEYWGQGTQVTVSS
notes: glycine–serine (G5S) linker; murine interleukin-2; size-matched control; also called untargeted IL-2; source: HEK293 cells, transfected, purified (TALON; some by SEC)
B5: LMJ1.2G (VHH)
VHH: B1 VHH with R52G
B6: LMJ2.5C (VHH)
VHH: B1 VHH with I51V, T113I
B7: LMJ2.5J (VHH)
VHH: B1 VHH with G8R, A24V, R52G, D54A
B8: LMJ1.3J (VHH)
VHH: B1 VHH with E6G, R52S, D54A
B9: LMJ2.6A (VHH)
VHH: B1 VHH with Q1R, A24V, S27R, E88G

The binders below were run against T1, biotinylated EIIIB (protein fragment of fibronectin splice variant EIIIB) (Homo sapiens (sequence identical in …, UniProt P02751, strain, biotin (ChromaLink NHS-biotin reagent))) (assay: BLI; biotinylated EIIIB immobilised on streptavidin tips (2 μg/mL); nanobody or IL-2 fusion as analyte, 0.1 to 350 nM; PBS with 0.05% Tween-20 and 1% recombinant human albumin; 1:1 binding model, global fit, double referencing). Conditions: both partners purified.
T1 construct: alternatively spliced EIIIB (EDB) domain of fibronectin; also called EDB; EIIIB domain of fibronectin
For B1, the Kd was 0.3 nM.
For B2, the Kd was 0.025 nM.
Work on B3 yielded a Kd of 2 nM.
B4: no binding (tested: 100 nM).

Each binder was assayed against T1, biotinylated EIIIB (protein fragment of …) (assay: not given). Conditions: not given.
Target sequence in this assay (P02751 1266-1356, stated change not applied): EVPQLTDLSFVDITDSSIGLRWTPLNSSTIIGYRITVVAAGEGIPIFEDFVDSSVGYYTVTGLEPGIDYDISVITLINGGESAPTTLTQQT
B5: binds.
B6: binds.
B7: binds.
B8: binds.
B9: binds.

— article PMC9802395, “Intratumoral nanobody–IL-2 fusions that bind the tumor extracellular matrix suppress solid tumor growth in mice” (PNAS Nexus, 2022)
